# Laboratory results reported in patent US20250129140A1, “ANTI-HCMV ANTIBODIES AND ANTIGEN-BINDING FRAGMENTS THEREOF” (ICAHN SCHOOL OF MEDICINE AT MOUNT SINAI, priority 2021, published 2025).
# B1: 15G11: anti-HCMV gH/gL monoclonal antibody, fusion 1; VH SEQ ID NO:52, VL SEQ ID NO:53; chimeric and fully human IgG1 versions (antibody, V domains shown)
# VH: QVQLQESGPGLVKPSQTLSLTCTVSGGSISSGYYYWNWIRQHPGKGLECIGYIYYSGTTYYNPSLKSRLFISVDTSKNQFSLKLRSVTAADTAVYYCARGGLGAFDIWGQGTMVTVSS
# VL: EIVLTQSPGTLSLSPGERATLSCRASQSVSSSYLAWYQQKPGQAPRLLIYGASSRAPGIPDRFSGTGSGTDFTLTISRLEPEDFAVYYCQQYGISPLTFGGGTKVEIK
# modifications: IgG1 constant regions
# notes: anti-HCMV gH/gL monoclonal antibody, fusion 1; chimeric and fully human IgG1 versions
# Key:
# HCMV AD169R [1] = assay: Neutralization by fully human versus chimeric antibody versions; assay type: cell-based, Human cytomegalovirus; conditions: fully human (hu) version, human IgG1 Fc
# Experimental: Increasing concentrations of monoclonal antibodies (0.016-50 μg/mL) were incubated with AD169R (MOI 0.2) to assess neutralizing capacity. Percent infection was quantified using GFP expression at 18 hpi and normalized based on infection with virus alone (no antibody). CMV hyperimmune globulin (CytoGam®) was used as a control (trace on the upper right in FIGS. 8A, 8B, 8C, and 8D). FIG. 8A. […] FIG. 8B. Fully human (hu, comprising human variable and human constant regions) and chimeric (ms, comprising human variable and murine constant regions) versions of 9A12. FIG. 8C. Fully human (hu, comprising human variable and human constant regions) and chimeric (ms, comprising human variable and murine constant regions) versions of 13G1. FIG. 8D. Fully human (hu, comprising human variable and human constant regions) and chimeric (ms, comprising human variable and murine constant regions) versions of 14E1.
# For this, the mouse Fc region of these mAbs was replaced with the human IgG1 Fc region.
# HCMV AD169R [2] = assay: FFU assay in ARPE-19 cells in combination with ganciclovir; assay type: cell-based, Human cytomegalovirus; conditions: combined with ganciclovir (2.5 μM); antibody 10 μg/mL; Day 12
# Experimental: Relative number of plaques present 12 dpi in ARPE-19 cells infected with AD169R. Infection was performed in the presence of antibody at three different concentrations +/−ganciclovir (2.5 μM). On day 12 post infection GFP images were taken and the plaque number was calculated relative to virus alone controls on each plate. M2E10 and CytoGam® were used as negative and positive controls respectively. Each condition was done in triplicate and 10,000 μm^2 was used as a cutoff for plaque area.
# ARPE-19 or NHDF cells were plates at 50,000 cells per well in a 24 well and infected the following day. TB40/E (MOI 0.01) and AD169RBAD^rUL131 (MOI 0.1 & 0.01) was incubated with either 10 μg/mL or 0.5 μg/mL of antibody one hour prior to addition to cells. Following a 2 hr incubation at 37° C., 5% CO2 the inoculum was removed, and cells were overlaid with 1% low melt temperature sea agarose overlay. The overlay was allowed to solidify at room temp and then 500 μL of media was added before cells were put back into the incubator. […]
# To test efficacy of the gH antibodies in combination with ganciclovir, the FFU assay was performed in ARPE-19 cells. […] M2E10 and CytoGam® were used as negative and positive controls respectively and the relative number of plaques was calculated based on cells which received virus alone without any antibody (black bar for each graph). […]
# TB40/E UL32-eGFP virus = assay: Virus attachment assay on ARPE-19 cells; assay type: cell-based, Human cytomegalovirus; conditions: 10 μg/mL, 0 or 120 minutes
# Experimental: ARPE-19 cells were plated in glass bottom 12 well plates the day before infection. […] Infection occurred at 37° C. for 0-2 hrs before cells were washed using a citrate wash buffer (pH 3.2) for two minutes at RT. Cells were then washed with PBS and fixed in 4% PFA for 20 minutes at RT before being stained with Hoechst. Plates were read using a Cytation 3 Cell Imaging Multi-Mode Reader (BioTek, Winooski, VT) and images were acquired using brightfield and the 405 and 488 nm lasers.
# To visualize HCMV virion attachment and entry, a recombinant HCMV strain was used that expresses eGFP fused to the C terminus of the tegument protein pUL32. The tegument protein is tightly associated with the capsid and allows for visualization of virus entry by immunofluorescence. […] Cells were incubated with the virus/antibody for either 0 or 120 minutes before being washed with citrate buffer (pH 3.2) for two minutes and fixed with PFA.
# HCMV = assay: Virus neutralization, summary statements across cell types and strains; assay type: cell-based, Human cytomegalovirus; conditions: MRC5; TB40/E, AD169R, TR, Towne
# Experimental: AD169R^BADrUL131, TB40E, TR, or Towne was pre-incubated with monoclonal antibodies (starting dilution of 100 μg/mL antibody) was diluted using 5 fold dilutions to achieve a final range of 50-0.016 μg/mL antibody after addition to 25 μL of media containing virus; final MOI 0.2) and incubated at 4° C. for 1 hr before the inoculum was added to the appropriate cell types (ARPE-19, HTR-svNeo, MRC5, or NHDF cells at 10,000 cells per well) for 2 hrs at 37° C., 5% CO2. Following infection, the inoculum was removed and replaced with 100 μL complete DMEM/F-12 media before an overnight incubation at 37° C., 5% CO2.
# Cells were fixed using 4% paraformaldehyde (PFA) for 20 minutes at room temp. Cells were then permeabilized using 0.3% Triton X-100 (Thermo Fisher, #HFH10) in PBS and stained with an affinity-purified, polyclonal rabbit anti-IE1-1/2 (0.7 ng/ml) primary and an anti-rabbit Alexa Fluor 647 (1:1000) secondary. To quantify total cells per well, Hoechst (Molecular Probes, #H3570) was diluted 1:100,000 in PBS and incubated with cells for 20 minutes at room temp. Virus neutralization was quantified using a Celigo cytometer (Nexelcom Bioscience). Percent infection was calculated using ((#IE1-1+)/(#Hoechst+))*100 events per well and normalized to the percent infection when an irrelevant, non-neutralizing, or no antibody was used.
# The student's unpaired, two tailed t tests were performed using the GraphPad Prism software (La Jolla, CA). An asterisk identifies statistical significance of P<0.05 or less.
# [3] = tested on: recombinant HCMV pentamer (strain VR1814) consisting of gH, gL, UL128, UL130 and UL131A; assay: Biolayer interferometry (Octet RED) KD determination; assay type: binding, Human cytomegalovirus
# Experimental: Biolayer interferometry assays were performed using the Octet RED instrument (ForteBio, Inc.) to determine the association (kon) and dissociation (kdis) constants for each antibody. Purified monoclonal antibody was loaded onto the anti-mouse Fc IgG capture (AMC) biosensors using 5-fold dilutions (50-0.016 μg/mL in PBS) for 10 minutes. To determine the kon, the sensors were exposed to the recombinant HCMV pentamer (strain VR1814) consisting of gH, gL, UL128, UL130 and UL131A (Native Antigen, CMV-PENT-100) at a constant concentration of 100 μg/mL in PBS for 3 minutes. To determine the kdis, dissociation was measured over the course of 3 minutes while the sensors were in PBS buffer. KD values were calculated as a ratio of […].
# To examine this further, 293 Expi cells were transfected with wildtype gH, wildtype gL, cotransfected with gH and gL (gH+gL), transfected with a single plasmid expressing both gH and gL (gH/gL) or co-transfected a variety of gH mutants and gL. Three days post transfection the cells were harvested and stained with unlabeled primary at 0.5 μg/mL using the antibodies indicated. Transfection efficiency was determined by measuring GFP expression on day 3 and binding was determined by percent Alexa Fluor 647 positive cells using a conjugated secondary. […] The binding profile for 1G9 is most similar to 10F8. Although the ratios of gH, gL and gO plasmid were 1:1:1 it is not certain how efficiently the trimer was assembled following transfection. […] To discern minute differences in antibody binding biolayer interferometry was used, immobilizing each of the purified monoclonal antibodies (50-0.016 μg/mL) onto anti-mouse IgG Fc capture (AMC) biosensors and exposing the sensors to recombinant pentamer (100 μg/mL).
molecule,measurement,setting,value
B1,"IC50 of infection, version with human constant regions",HCMV AD169R [1],0.37 µg/mL
same,reduction in plaques,HCMV AD169R [2],95%
same,number of virions bound to the cells,TB40/E UL32-eGFP virus,did not significantly change
same,neutralization of infection across all strains,HCMV,consistently neutralized infection
same,kdis,[3]; dissociation 3 minutes in PBS,8.69e-05 s⁻¹
same,rank of binding constant within the panel,[3]; recombinant pentamer,strongest
